Experimental data: publication doi:10.1101/2025.04.25.650662 (bioRxiv, 2025)

Experiments:
[1] = molecular target: Leucine-rich repeat containing, G protein-coupled receptor 4 (LGR4), human, on HEK293T cells (human, UniProt Q9BXB1 25-951); test: whole-cell binding assay
[2] = molecular target: Leucine-rich repeat containing, G protein-coupled receptor 5 (LGR5), human, on HEK293T cells (HEK293-LGR5-DeltaC) (human) (UniProt O75473); test: whole-cell binding assay
Leucine-rich repeat containing, G protein-coupled receptor 5 (LGR5), human, on HEK293T cells (HEK293-LGR5-DeltaC) (human), sequence (O75473 22-907, stated change not applied): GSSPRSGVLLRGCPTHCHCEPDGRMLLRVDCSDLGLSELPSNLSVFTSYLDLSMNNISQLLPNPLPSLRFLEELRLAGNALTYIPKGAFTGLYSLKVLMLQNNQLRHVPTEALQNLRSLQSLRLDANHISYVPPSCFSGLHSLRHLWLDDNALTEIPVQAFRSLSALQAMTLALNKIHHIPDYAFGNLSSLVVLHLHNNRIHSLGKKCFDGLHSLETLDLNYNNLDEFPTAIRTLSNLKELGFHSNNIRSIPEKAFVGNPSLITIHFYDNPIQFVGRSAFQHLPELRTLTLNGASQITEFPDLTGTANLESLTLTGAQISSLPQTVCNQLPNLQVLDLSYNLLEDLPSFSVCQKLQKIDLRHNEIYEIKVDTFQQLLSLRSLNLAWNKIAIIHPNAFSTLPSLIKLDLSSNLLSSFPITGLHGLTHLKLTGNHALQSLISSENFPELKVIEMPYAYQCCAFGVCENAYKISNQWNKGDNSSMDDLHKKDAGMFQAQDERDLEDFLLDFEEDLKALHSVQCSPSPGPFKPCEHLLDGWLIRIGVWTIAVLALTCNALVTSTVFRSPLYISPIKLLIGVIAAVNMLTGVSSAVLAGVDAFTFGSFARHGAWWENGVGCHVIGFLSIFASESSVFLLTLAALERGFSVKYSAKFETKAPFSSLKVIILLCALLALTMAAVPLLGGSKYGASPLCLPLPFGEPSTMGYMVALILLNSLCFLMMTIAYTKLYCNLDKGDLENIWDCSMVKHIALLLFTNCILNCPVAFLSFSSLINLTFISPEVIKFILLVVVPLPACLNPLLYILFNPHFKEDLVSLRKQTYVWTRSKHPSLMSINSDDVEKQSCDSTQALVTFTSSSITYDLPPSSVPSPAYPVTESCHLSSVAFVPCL

Kd [1]: 0.2 nM
Kd [2]: 0.3 nM
B1: R232, RSPO2 furin domain M68T/Q70R double mutant fused to human IgG1-Fc (Fc fusion)
chain: CKGCLSCSKDNGCSRCQQKLFFFLRREGTRRYGECLHSCPSGYYGHRAPDMNRCARCRIENCDSCFSKDFCTKCKVGFYLHRGRCFDECPDGFAPLEETMEC
